What was measured:
PET [1] = assay: Proxy for plastic degradation [Weight/mass loss]; details: pH 8
gfPET [2] = assay: Proxy for plastic degradation [Weight/mass loss]; details: pH 8
gfPET [3] = assay: Proxy for plastic degradation [Released monomer concentration (HPLC/LC-MS) (TPA+MHET+BHET)]
PET [4] = assay: Proxy for plastic degradation [Released monomer concentration (HPLC/LC-MS) (TPA+MHET)]; details: pH 8

Row | Protein | Proxy for plastic degradation (PET [1]; 65 °C) [%] | Proxy for plastic degradation (PET [1]; 70 °C) [%] | Proxy for plastic degradation (PET [1]; 75 °C) [%] | Proxy for plastic degradation (gfPET [2]; 65 °C) [%] | Proxy for plastic degradation (gfPET [2]; 70 °C) [%] | Proxy for plastic degradation (gfPET [2]; 75 °C) [%] | Proxy for plastic degradation (gfPET [3]; 40 °C) [mmol/h] | Proxy for plastic degradation (gfPET [3]; 50 °C) [mmol/h] | Proxy for plastic degradation (gfPET [3]; 55 °C) [mmol/h] | Proxy for plastic degradation (gfPET [3]; 60 °C) [mmol/h] | Proxy for plastic degradation (gfPET [3]; 65 °C) [mmol/h] | Proxy for plastic degradation (gfPET [3]; 70 °C) [mmol/h] | Proxy for plastic degradation (gfPET [3]; 75 °C) [mmol/h] | Proxy for plastic degradation (gfPET [3]; 80 °C) [mmol/h] | Proxy for plastic degradation (gfPET [3]; 85 °C) [mmol/h] | further results
1 | unnamed (protein) MANPYERGPNPTDALLEARSGPFSVSEENVSRLSASGFGGGTIYYPRENNTYGAVAISPGYTGTEASIAWLGERIASHGFVVITIDTITTLDQPDSRAEQLNAALNHMINRASSTVRSRIDSSRLAVMGHSMGGGGSLRLASQRPDLKAAIPLTPWHLNKNWSSVRVPTLIIGADLDTIAPVLTHARPFYNSLPTSISKAYLELDGATHFAPNIPNKIIGKYSVAWLKRFVDNDTRYTQFLCPGPRDGLFGEVEEYRSTCPF | 15 | 18 | 15 | – | – | – | – | – | – | – | – | – | – | – | – | Proxy for plastic degradation (PET [1]; 45 °C): 0.5%; Proxy for plastic degradation (PET [1]; 50 °C): 1%; Proxy for plastic degradation (PET [1]; 55 °C): 1%; Proxy for plastic degradation (PET [1]; 60 °C): 1%
2 | unnamed (protein) MENPYERGPDPTESSIEAVRGPFAVAQTTVSRLQADGFGGGTIYYPTDTSQGTFGAVAISPGFTAGQESIAWLGPRIASQGFVVITIDTITRLDQPDSRGRQLQAALDHLRTNSVVRNRIDPNRMAVMGHSMGGGGALSAAANNTSLEAAIPLQGWHTRKNWSSVRTPTLVVGAQLDTIAPVSSHSEAFYNSLPSDLDKAYMELRGASHFVSNTPDTTTAKYSIAWLKRFVDNDLRYEQFLCPAPDDFAISEYRATCPF | 15 | 20 | 18 | 18 | 18 | 18 | 0 | 0.08 | 0.11 | 0.18 | 0.25 | 0.3 | 0.38 | 0.41 | 0.38 | –
3 | unnamed (protein) MANPYERGPDPTESSIEAVRGPFAVAQTTVSRLQADGFGGGTIYYPTDTSQGTFGAVAISPGFTAGQESIAWLGPRIASQGFVVITIDTITRLDQPDSRGRQLQAALDHLRTNSVVRNRIDPNRMAVMGHSMGGGGALSAAANNTSLEAAIPLQGWHTRKNWSSVRTPTLVVGAQLDTIAPVSSHSEAFYNSLPSDLDKAYMELRGASHLVSNTPDTTTAKYSIAWLKRFVDDDLRYEQFLCPAPDDFAISEYRSTCPF | – | – | – | – | – | – | – | – | – | – | – | – | – | – | – | Proxy for plastic degradation (PET [1]; 65 °C, part of the chain shown): 75%; Proxy for plastic degradation (PET [1]; 70 °C, part of the chain shown): 95%; Proxy for plastic degradation (PET [1]; 75 °C, part of the chain shown): 60%; Proxy for plastic degradation (gfPET [2]; 65 °C, part of the chain shown): 77%; Proxy for plastic degradation (gfPET [2]; 70 °C, part of the chain shown): 90%; Proxy for plastic degradation (gfPET [2]; 75 °C, part of the chain shown): 58%; Proxy for plastic degradation (PET [4]; 0 h, part of the chain shown): 0 mM; Proxy for plastic degradation (PET [4]; 4 h, part of the chain shown): 15 mM; Proxy for plastic degradation (PET [4]; 8 h, part of the chain shown): 26 mM; Proxy for plastic degradation (PET [4]; 16 h, part of the chain shown): 50 mM; Proxy for plastic degradation (gfPET [3]; 40 °C, part of the chain shown): 0 mmol/h; Proxy for plastic degradation (gfPET [3]; 50 °C, part of the chain shown): 0.45 mmol/h; Proxy for plastic degradation (gfPET [3]; 55 °C, part of the chain shown): 0.8 mmol/h; Proxy for plastic degradation (gfPET [3]; 60 °C, part of the chain shown): 0.9 mmol/h; Proxy for plastic degradation (gfPET [3]; 65 °C, part of the chain shown): 1.1 mmol/h; Proxy for plastic degradation (gfPET [3]; 70 °C, part of the chain shown): 1.4 mmol/h; Proxy for plastic degradation (gfPET [3]; 75 °C, part of the chain shown): 1.7 mmol/h; Proxy for plastic degradation (gfPET [3]; 80 °C, part of the chain shown): 1.65 mmol/h; Proxy for plastic degradation (gfPET [3]; 85 °C, part of the chain shown): 0.9 mmol/h
4 | unnamed (protein) MANPYERGPNPTDALLEARSGPFSVSEENVSRLSASGFGGGTIYYPRENNTYGAVAISPGYTGTEASIAWLGERIASHGFVVITIDTITTLDQPDSRAEQLNAALNHMINRASSTVRSRIDSSRLAVMGHSMGGGGSLRLASQRPDLKAAIPLTPWHLNKNWSSVTVPTLIIGADLDTIAPVATHAKPFYNSLPSSISKAYLELDGATHFAPNIPNKIIGKYSVAWLKRFVDNDTRYTQFLCPGPRDGLFGEVEEYRSTCPF | – | – | – | 7 | 8 | 2 | 0 | 0.05 | 0.08 | 0.18 | 0.2 | 0.2 | 0.08 | 0.05 | 0 | –
5 | unnamed (protein) MDGVLWRVRTAALMAALLALAAWALVWASPSVEAQSNPYQRGPNPTRSALTADGPFSVATYTVSRLSVSGFGGGVIYYPTGTSLTFGGIAMSPGYTADASSLAWLGRRLASHGFVVLVINTNSRFDYPDSRASQLSAALNYLRTSSPSAVRARLDANRLAVAGHSMGGGGTLRIAEQNPSLKAAVPLTPWHTDKTFNTSVPVLIVGAEADTVAPVSQHAIPFYQNLPSTTPKVYVELDNASHFAPNSNNAAISVYTISWMKLWVDNDTRYRQFLCNVNDPALSDFRTNNRHCQ | – | – | – | – | – | – | – | – | – | – | – | – | – | – | – | Proxy for plastic degradation (PET [4]; 0 h): 0 mM; Proxy for plastic degradation (PET [4]; 4 h): 3 mM; Proxy for plastic degradation (PET [4]; 8 h): 7 mM; Proxy for plastic degradation (PET [4]; 16 h): 29 mM

— the PETadex activity labels (doi:10.1002/cssc.202101062)
